These results are taken from US20240352130A1 (CHILDREN S HOSPITAL OF PHILADELPHIA, published 2024).

In assay [1] the target is T1, … HLA-A*24:02 complex (human).
T1 construct: also called Unrelated peptide 2
The assay can be described thus: bead-based binding, scFv on streptavidin beads, fluorescent pMHC.

The target of assay [2] is T2, … HLA-A*24:02 complex (human).
T2 construct: also called Unrelated peptide 4
The assay is described as above.

The target in assay [3] is T3, … HLA-A*24:02 complex (human).
T3 construct: also called Unrelated peptide 1
The description is as above.

In assay [4] the target is T4, … HLA-A*24:02 complex (human).
T4 construct: also called Unrelated peptide 3
The description is as above.

Assay [5] deals with T5, PHOX2B (43-51) A*24:02 MHC complex (human).
T5 construct: also called PHOX2B (43-51) complex; PHOX2B target pMHC
The assay can be described thus: BLI (BLItz), biotinylated scFv on streptavidin sensor, soluble pMHC 200 nM.
Experimental: (§1) Binding kinetics. Affinity measurements were performed using a BLItz™ system (ForteBio, USA) and analyzed using the BLItz Pro™ software.

In assay [6] the target is T5, PHOX2B (43-51) A*24:02 MHC complex. The description is as above. The source holds these as a separate data set.
Experimental: as §1
The target of assay [7] is T1, … HLA-A*24:02 complex. The assay can be described thus: bead-based binding, scFv on streptavidin beads, fluorescent pMHC. The source holds these as a separate data set.
Assay [8] has as its target T2, … HLA-A*24:02 complex. The description is as above. This is another data set of the same source.
The target of assay [9] is T3, … HLA-A*24:02 complex. The description is as above. The source holds these as a separate data set.
Assay [10] concerns the target T4, … HLA-A*24:02 complex. The description is as above. The source holds these as a separate data set.
Assay [11] deals with T5, PHOX2B (43-51) A*24:02 MHC complex. Briefly: BLI (BLItz), biotinylated scFv on streptavidin sensor, soluble pMHC 200 nM. The source holds these as a separate data set.
Experimental: as §1
In assay [12] the target is T1, … HLA-A*24:02 complex. The assay can be described thus: bead-based steady-state binding assay (FIG. 3A).
Experimental: (§2) Steady-state binding assay. An equilibrium binding assay to target pMHCs was also established using MyOne Streptavidin C1 Dynabeads. Briefly, 50 micrograms of Streptavidin C1 Dynabeads were incubated with excess biotinylated scFv before being blocked with free biotin and washed in PBS. […] Binding was normalized to beads without scFv and with unrelated control MHC complex.
The target in assay [13] is T2, … HLA-A*24:02 complex. Briefly: bead-based steady-state binding assay (FIG. 3A).
Experimental: as §2
The target of assay [14] is T3, … HLA-A*24:02 complex. The assay can be described thus: bead-based steady-state binding assay (FIG. 3A).
Experimental: as §2
In assay [15] the target is T4, … HLA-A*24:02 complex. The assay can be described thus: bead-based steady-state binding assay (FIG. 3A).
Experimental: as §2
Assay [16] concerns the target T5, PHOX2B (43-51) A*24:02 MHC complex. The assay can be described thus: BLI (BLItz), biotinylated scFv on a streptavidin sensor, soluble pMHC in solution.
Experimental: as §1
Assay [17] concerns the target T1, … HLA-A*24:02 complex. The assay can be described thus: bead-based binding, scFv on streptavidin beads, fluorescent pMHC. The source holds these as a separate data set.
For assay [18], the target named is T2, … HLA-A*24:02 complex. The description is as above. The source holds these as a separate data set.
In assay [19] the target is T3, … HLA-A*24:02 complex. The description is as above. This is another data set of the same source.
Assay [20] has as its target T4, … HLA-A*24:02 complex. Described as above. The source holds these as a separate data set.
Assay [21] concerns the target T5, PHOX2B (43-51) A*24:02 MHC complex. Briefly: BLI (BLItz), biotinylated scFv on streptavidin sensor, soluble pMHC 200 nM. The source holds these as a separate data set.
Experimental: as §1

Positions count from the first letter of the chain named. Read-outs that look alike come from different tables or passages of the source.

B1: Clone 9 (RU-201-9) scFv (scFv)
scFv: SRNGGDGQSVLTQPPSVSVSPGQTASITCSGDSLGYKYACWYQQKPGQSPVLVIYQDSKRPSGIPERFSGSNSGNTATLTISGTQAMDEADYYCQAWDSLGVNTVVFGTGTKVTVSSQTGGSGGGGSGGGGSGGGGSEVQLLESGGGLVQPGGSLRLSCAASGFTFNYYAMSWVRQAPGKGLEWVSAISGYGGSTYYADSVKGRFTISRDNSKNTLYLQMNSLRAEDTAVYYCAKASEAYSAFDIWGQGTMVTVSSS
As a reminder, the Kd is the constant that tells how readily two partners part at equilibrium. High values mean a looser complex, low ones a tighter complex. Take B1: the binding result with … HLA-A*24:02 complex [1], in the assay with … HLA-A*24:02 complex [2], with … HLA-A*24:02 complex [3] and with … HLA-A*24:02 complex [4] was “no binding (tested: 3.5 nM)” each time. The same molecule registered a Kd in assay [5] of 100 nM.

B2: Clone 1114 (RU201-1114) scFv (scFv)
scFv: B1 scFv with S33K, Y36D, L100I, V102N, N103M, N167D, A239Y, Y240T, S241N, T250I
B2 returned a Kd in assay [6] of 270 nM. The binding result with … HLA-A*24:02 complex [7], with … HLA-A*24:02 complex [8], with … HLA-A*24:02 complex [9] and with … HLA-A*24:02 complex [10] was “no binding (tested: 3.5 nM)” each time.

B3: Clone 10 (RU141-10) scFv (scFv)
scFv: SRNGGDGQSVLTQPPSVSVSPGQTASITCSGDSLGNKYACWYQQKPGQSPVLVIYQDSKRPSGIPERFSGSNSGNTATLTISGTQAMDEADYYCQAWDSSRGYTVVFGTGTKVTVSSQTGGSGGGGSGGGGSGGGGSEVQLLESGGGLVQPGGSLRLSCAASGFTFDSYAMSWVRQAPGKGLEWVSAISGYGGSTYYADSVKGRFTISRDNSKNTLYLQMNSLRAEDTAVYYCAKYTYFLDAFDIWGQGTMVTVSSS
As usually defined, the koff is a measure of how fast the partners let go of each other. Read a high koff as a short-lived complex. In turn, B3 registered a dissociation constant (Kd) in assay [11] of 10 nM. Moreover, the binding result with … HLA-A*24:02 complex [12], with … HLA-A*24:02 complex [13], in the assay with … HLA-A*24:02 complex [14] and with … HLA-A*24:02 complex [15] was “no binding (tested: 3.5 nM pMHC)” throughout. In assay [16], this molecule showed a dissociation rate constant (koff) of 0.00076 s⁻¹.

B4: Clone 1113 (RU-201-1113) scFv (scFv)
scFv: SRNGGDGQSVLTQPPSVSAAPGQKVTISCSGSSSNIGNNYVSWYQQLPGTAPKLLIYDNNKRPSGIPDRFSGSKSGTSATLGITGLQTGDEADYYCGTWDHMGRNTVVFGTGTKVTVSSQTGGSGGGGSGGGGSGGGGSEVQLLESGGGLVQPGGSLRLSCAASGFTFSDYAMSWVRQAPGKGLEWVSAISGTGGSTYYADSVKGRFTISRDNSKNTLYLQMNSLRAEDTAVYYCAKEFSVVNSAAFDIWGQGTMVTVSSS
Regarding B4, the binding result in the assay with … HLA-A*24:02 complex [17], with … HLA-A*24:02 complex [18], with … HLA-A*24:02 complex [19] and with … HLA-A*24:02 complex [20] was “no binding (tested: 3.5 nM)” throughout. The molecule further gave a Kd in assay [21] of 9 nM.
